Reference: patent US20210214447A1 (SHANGHAI INSTITUTE OF MATERIA MEDICA CHINESE ACADEMY OF …, published 2021)

Legend:
[1] = biological target: T1, human AXL on the surface of tumor cells (human, UniProt P30530 26-894); test: FACS on LCLC-103H cells
T1 construct: whole, on cells; endogenous protein of human tumor cell lines; the cell line is named under assay or readout; also called AXL on the cell surface
T1 sequence (looked up): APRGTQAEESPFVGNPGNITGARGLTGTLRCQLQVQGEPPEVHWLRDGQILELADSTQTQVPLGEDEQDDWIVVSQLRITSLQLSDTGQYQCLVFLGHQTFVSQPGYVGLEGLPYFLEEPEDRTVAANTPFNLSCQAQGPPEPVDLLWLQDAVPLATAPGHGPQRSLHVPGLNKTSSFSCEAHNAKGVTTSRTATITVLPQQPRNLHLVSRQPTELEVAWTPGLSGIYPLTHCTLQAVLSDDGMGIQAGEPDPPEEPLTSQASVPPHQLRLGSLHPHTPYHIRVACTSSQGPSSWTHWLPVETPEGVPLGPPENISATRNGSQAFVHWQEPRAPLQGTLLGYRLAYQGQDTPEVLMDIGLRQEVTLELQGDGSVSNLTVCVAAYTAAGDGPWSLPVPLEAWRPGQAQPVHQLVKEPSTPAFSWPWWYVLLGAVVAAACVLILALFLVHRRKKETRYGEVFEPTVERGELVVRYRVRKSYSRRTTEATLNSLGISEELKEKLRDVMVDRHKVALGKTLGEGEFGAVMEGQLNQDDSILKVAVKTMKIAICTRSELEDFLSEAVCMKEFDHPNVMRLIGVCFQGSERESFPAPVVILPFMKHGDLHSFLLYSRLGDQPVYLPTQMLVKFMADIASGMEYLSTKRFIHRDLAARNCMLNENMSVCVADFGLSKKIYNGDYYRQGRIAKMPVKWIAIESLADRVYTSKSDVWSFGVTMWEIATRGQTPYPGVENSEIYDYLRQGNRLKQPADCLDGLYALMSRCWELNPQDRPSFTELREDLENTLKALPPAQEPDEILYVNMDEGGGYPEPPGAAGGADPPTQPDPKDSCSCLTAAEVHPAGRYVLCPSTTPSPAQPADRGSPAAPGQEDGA
Method: (§1) Then the obtained solutions were incubated at 4° C. for 1 h, the cells were washed twice with PBS to remove unbound primary antibody, and then the target cells were incubated with 200 μL PE-labeled secondary antibody (2 μg/mL) at 4° C. for 30 min. The cells were washed twice with PBS to remove unbound secondary antibody. Finally, the cells were resuspended in 200 μL PBS, and the binding affinity of the test antibody to AXL on the cell surface was determined by a flow cytometer (FACSCalibur)
The experimental method was referred to Example 8.

[2] = biological target: T1, human AXL on the surface of tumor cells; test: FACS on MDA-MB-231 cells
Method: as §1
24 humanized antibodies in Table-6 were diluted by gradient, and their affinities to AXL, on the surface of MDA-MB-231 cells were determined by flow cytometer. The experimental method was referred to Example 8.

[3] = biological target: T2, extracellular domain of human AXL protein (AXL-ECD) (human, UniProt P30530 31-449); test: ELISA, plate-coated AXL-ECD
T2 construct: expressed in HEK293T cells; coated on the ELISA plate; also called AXL-ECD protein; human AXL extracellular domain protein
T2 sequence: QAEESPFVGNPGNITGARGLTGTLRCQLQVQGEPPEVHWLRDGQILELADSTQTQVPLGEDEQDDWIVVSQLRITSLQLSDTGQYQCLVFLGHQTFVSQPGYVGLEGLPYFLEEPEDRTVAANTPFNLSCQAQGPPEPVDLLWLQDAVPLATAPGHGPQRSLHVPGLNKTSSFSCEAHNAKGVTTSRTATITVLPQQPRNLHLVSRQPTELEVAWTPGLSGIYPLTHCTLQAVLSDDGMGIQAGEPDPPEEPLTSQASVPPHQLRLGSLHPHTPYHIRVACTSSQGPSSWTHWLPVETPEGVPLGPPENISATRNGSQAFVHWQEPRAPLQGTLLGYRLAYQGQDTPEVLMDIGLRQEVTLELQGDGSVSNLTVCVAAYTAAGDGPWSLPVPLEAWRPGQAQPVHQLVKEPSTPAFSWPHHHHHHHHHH
Method: The extracellular domain of AXL protein (AXL-ECD) was diluted to […] with the coating solution, and coated onto ELISA plate with 100 μL/well at 4° C. overnight. The excess antigen was washed off. The plate was blocked with 1% BSA at room temperature for 2 h, then each monoclonal antibody in a 3-fold dilution was added at 100 µL/well. The plate was incubated at room temperature for 1 h; the unbound antibody was washed off, and appropriate concentration of anti-mouse secondary antibody labeled with horseradish peroxidase was added at 100 µL/well. The plate was incubated at room temperature for 0.5 h. The unbound secondary antibody was washed off. TMB Substrate was added and reacted for about 15 minutes. 1N HCL was added at 50 µL/well to stop the color reaction. Then the absorbance was measured at 450 nm and the obtained data was analyzed.
24 humanized antibodies in Table-6 were diluted by gradient, and their affinity to AXL-ECD protein was determined by ELISA. The experimental method was referred to Example 4.

Row | Binder | EC50 [1] [pM] | EC50 [2] [pM] | Highest MFI value (FACSCalibur) [2] [MFI] | EC50 [3] [pM] | TOP (OD450) [3] [OD450]
1 | Hu002-5 (antibody, V domains shown, humanized from mAb002c; also called Hu002c-5) VH: QVQLVQSGAEVKKPGASVKVSCKASGYPFTDFYINWVRQAPGQGLEWMGWIYPGSGNTKYNEKFKGRVTLTVDTSISTAYMELSRLRSDDTAVYYCARSTGFFDYWGQGTLVTVSS VL: EIVLTQSPATLSLSPGERATLSCSASSSIGYMYWYQQKPGQAPRLLIYLTSNLASGIPARFSGSGSGTDYTLTISSLEPEDFAVYYCQQWSSNPPTFGQGTKLEIK | 360 | 114 | 275 | 50 | 3.59
2 | Hu002-4 (antibody, V domains shown, humanized from mAb002c; also called Hu002c-4) VH: QVQLVQSGAEVKKPGASVKVSCKASGYPFTDFYINWVRQAPGQGLEWMGWIYPGSGNTKYNEKFKGRVTMTRDTSISTAYMELSRLRSDDTAVYYCARSTGFFDYWGQGTLVTVSS VL: EIVLTQSPATLSLSPGERATLSCSASSSIGYMYWYQQKPGQAPRLLIYLTSNLASGIPARFSGSGSGTDYTLTISSLEPEDFAVYYCQQWSSNPPTFGQGTKLEIK | 490 | 90 | 277 | 55 | 3.6
3 | Hu002-23 (antibody, V domains shown, humanized from mAb002c; also called Hu002c-23) VH: QVQLVQSGAEVKKPGASVKVSCKASGYPFTDFYINWVRQAPGQGLEWMGWIYPGSGNTKYNEKFKGRVTLTVDTSISTAYMELSRLRSDDTAVYYCARSTGFFDYWGQGTLVTVSS VL: QIVLTQSPDFQSVTPKEKVTITCSASSSIGYMYWYQQKPDQSPKSLIYLTSNLASGVPSRFSGSGSGTDYTLTINSLEAEDAATYYCQQWSSNPPTFGQGTKLEIK | – | 98 | 276 | 57 | 3.69
4 | Hu002-22 (antibody, V domains shown, humanized from mAb002c; also called Hu002c-22) VH: QVQLVQSGAEVKKPGASVKVSCKASGYPFTDFYINWVRQAPGQGLEWMGWIYPGSGNTKYNEKFKGRVTMTRDTSISTAYMELSRLRSDDTAVYYCARSTGFFDYWGQGTLVTVSS VL: QIVLTQSPDFQSVTPKEKVTITCSASSSIGYMYWYQQKPDQSPKSLIYLTSNLASGVPSRFSGSGSGTDYTLTINSLEAEDAATYYCQQWSSNPPTFGQGTKLEIK | – | 134 | 276 | 59 | 3.67
5 | Hu002-16 (antibody, V domains shown, humanized from mAb002c; also called Hu002c-16) VH: QVQLVQSGAEVKKPGASVKVSCKASGYPFTDFYINWVRQAPGQGLEWMGWIYPGSGNTKYNEKFKGRVTMTRDTSISTAYMELSRLRSDDTAVYYCARSTGFFDYWGQGTLVTVSS VL: EIVLTQSPDFQSVTPKEKVTITCSASSSIGYMYWYQQKPDQSPKLLIYLTSNLASGVPSRFSGSGSGTDYTLTINSLEAEDAATYYCQQWSSNPPTFGQGTKLEIK | – | 82 | 282 | 47 | 3.76
6 | Hu002-20 (antibody, V domains shown, humanized from mAb002c; also called Hu002c-20) VH: QVQLVQSGAEVKKPGASVKVSCKASGYPFTDFYINWVRQAPGQGLEWMGWIYPGSGNTKYNEKFKGRVTLTVDTSISTAYMELSRLRSDDTAVYYCARSTGFFDYWGQGTLVTVSS VL: EIVLTQSPDFQSVTPKEKVTITCSASSSIGYMYWYQQKPDQSPKSLIYLTSNLASGVPSRFSGSGSGTDYTLTINSLEAEDAATYYCQQWSSNPPTFGQGTKLEIK | – | 99 | 277 | 54 | 3.71
7 | Hu002-24 (antibody, V domains shown, humanized from mAb002c; also called Hu002c-24) VH: QVQLVQSGAEVKKPGASVKVSCKASGYPFTDFYINWVKQAPGQGLEWIGWIYPGSGNTKYNEKFKGRVTLTVDTSISTAYMELSRLRSDDTAVYYCARSTGFFDYWGQGTLVTVSS VL: QIVLTQSPDFQSVTPKEKVTITCSASSSIGYMYWYQQKPDQSPKSLIYLTSNLASGVPSRFSGSGSGTDYTLTINSLEAEDAATYYCQQWSSNPPTFGQGTKLEIK | – | 98 | 262 | 51 | 3.65
8 | Hu002-18 (antibody, V domains shown, humanized from mAb002c; also called Hu002c-18) VH: QVQLVQSGAEVKKPGASVKVSCKASGYPFTDFYINWVKQAPGQGLEWIGWIYPGSGNTKYNEKFKGRVTLTVDTSISTAYMELSRLRSDDTAVYYCARSTGFFDYWGQGTLVTVSS VL: EIVLTQSPDFQSVTPKEKVTITCSASSSIGYMYWYQQKPDQSPKLLIYLTSNLASGVPSRFSGSGSGTDYTLTINSLEAEDAATYYCQQWSSNPPTFGQGTKLEIK | – | 111 | 277 | 55 | 3.71
9 | Hu002-19 (antibody, V domains shown, humanized from mAb002c; also called Hu002c-19) VH: QVQLVQSGAEVKKPGASVKVSCKASGYPFTDFYINWVRQAPGQGLEWMGWIYPGSGNTKYNEKFKGRVTMTRDTSISTAYMELSRLRSDDTAVYYCARSTGFFDYWGQGTLVTVSS VL: EIVLTQSPDFQSVTPKEKVTITCSASSSIGYMYWYQQKPDQSPKSLIYLTSNLASGVPSRFSGSGSGTDYTLTINSLEAEDAATYYCQQWSSNPPTFGQGTKLEIK | – | 121 | 278 | 59 | 3.73
10 | Hu002-1 (antibody, V domains shown, humanized from mAb002c; also called Hu002c-1) VH: QVQLVQSGAEVKKPGASVKVSCKASGYPFTDFYINWVRQAPGQGLEWMGWIYPGSGNTKYNEKFKGRVTMTRDTSISTAYMELSRLRSDDTAVYYCARSTGFFDYWGQGTLVTVSS VL: EIVLTQSPATLSLSPGERATLSCSASSSIGYMYWYQQKPGQAPRLLIYLTSNLASGIPARFSGSGSGTDFTLTISSLEPEDFAVYYCQQWSSNPPTFGQGTKLEIK | 280 | 101 | 277 | 70 | 3.62
11 | Hu002-21 (antibody, V domains shown, humanized from mAb002c; also called Hu002c-21) VH: QVQLVQSGAEVKKPGASVKVSCKASGYPFTDFYINWVKQAPGQGLEWIGWIYPGSGNTKYNEKFKGRVTLTVDTSISTAYMELSRLRSDDTAVYYCARSTGFFDYWGQGTLVTVSS VL: EIVLTQSPDFQSVTPKEKVTITCSASSSIGYMYWYQQKPDQSPKSLIYLTSNLASGVPSRFSGSGSGTDYTLTINSLEAEDAATYYCQQWSSNPPTFGQGTKLEIK | – | 132 | 273 | 46 | 3.71
